# Laboratory results reported in patent publication US20130189759, “MEGANUCLEASES VARIANTS CLEAVING A DNA TARGET SEQUENCE IN THE NANOG GENE AND USES THEREOF” (Cellectis, published 2013).
# T1: SCOH-NANOG2 pCLS4418 (single-chain I-CreI variant)
# T1 chain: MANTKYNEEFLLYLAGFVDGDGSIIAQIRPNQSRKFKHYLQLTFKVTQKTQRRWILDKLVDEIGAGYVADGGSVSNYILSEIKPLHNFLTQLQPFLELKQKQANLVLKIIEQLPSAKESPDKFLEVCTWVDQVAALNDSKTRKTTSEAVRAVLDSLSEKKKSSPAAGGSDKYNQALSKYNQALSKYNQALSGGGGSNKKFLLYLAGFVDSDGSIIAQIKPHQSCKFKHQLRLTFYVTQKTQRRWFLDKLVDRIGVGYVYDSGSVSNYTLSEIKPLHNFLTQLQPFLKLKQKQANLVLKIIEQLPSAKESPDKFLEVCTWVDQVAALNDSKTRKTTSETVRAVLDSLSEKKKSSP
# T2: SCOH-NANOG2 pCLS4416 (single-chain I-CreI variant)
# T2 chain: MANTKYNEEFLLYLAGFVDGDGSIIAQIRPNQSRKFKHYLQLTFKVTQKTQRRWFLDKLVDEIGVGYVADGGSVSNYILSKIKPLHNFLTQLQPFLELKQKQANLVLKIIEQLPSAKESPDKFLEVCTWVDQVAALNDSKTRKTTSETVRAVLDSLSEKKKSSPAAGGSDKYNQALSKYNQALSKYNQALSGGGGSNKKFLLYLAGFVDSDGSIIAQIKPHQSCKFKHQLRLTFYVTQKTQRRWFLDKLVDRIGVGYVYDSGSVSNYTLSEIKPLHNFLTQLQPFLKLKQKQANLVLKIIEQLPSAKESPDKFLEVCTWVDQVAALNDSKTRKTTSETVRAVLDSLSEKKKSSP
# T3: SCOH-NANOG2 pCLS4415 (single-chain I-CreI variant)
# T3 chain: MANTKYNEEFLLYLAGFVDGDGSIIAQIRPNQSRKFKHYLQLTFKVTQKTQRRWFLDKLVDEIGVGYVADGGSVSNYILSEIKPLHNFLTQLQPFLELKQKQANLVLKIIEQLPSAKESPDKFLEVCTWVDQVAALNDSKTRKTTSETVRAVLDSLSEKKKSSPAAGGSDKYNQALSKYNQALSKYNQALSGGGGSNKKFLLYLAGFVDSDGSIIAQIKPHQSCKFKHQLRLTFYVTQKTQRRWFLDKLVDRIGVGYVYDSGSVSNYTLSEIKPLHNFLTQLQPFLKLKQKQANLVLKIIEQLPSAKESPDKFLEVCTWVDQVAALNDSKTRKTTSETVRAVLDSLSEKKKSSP
# Tests used:
# Test in all cases: cell_activity; 293H endogenous locus, 5 ug plasmid
# Conditions in all cases: tags: RM2 linker between monomers
# [1] = biological target: T1, SCOH-NANOG2 pCLS4418 (single-chain …)
# Experimental: (§1) Single Chain I-CreI variants targeting respectively NANOG2 and NANOG4 targets were cloned in the pCLS1853 plasmid. The resulting plasmids, respectively pCLS4415, pCLS4416, pCLS4417, pCLS4418, pCLS4421 and pCLS4422 were used for this experiment. The day of […], cells from the human embryonic kidney cell line, 293-H (Invitrogen) were seeded in a 10 cm dish at density of 1×10⁶ cells/dish. The following day, cells were transfected with 10 μg of total DNA corresponding to the combination of an empty plasmid with a meganuclease-expressing plasmid using lipofectamine (Invitrogen). Plasmid ratio (empty/meganuclease plasmid) used were 10 μg/0 μg, 9 μg/1 μg, 5 μg/5 μg 0 μg/10 μg. 48 hours after transfection, cells were collected and diluted (dilution 1/20) in fresh culture medium. After 7 days of culture, cells were collected and genomic DNA extracted. 300 ng of genomic DNA were used to amplify the endogenous locus surrounding the meganuclease cleavage site by PCR amplification.
# (§2) PCR amplification was performed to obtain a fragment flanked by specific adaptator sequences (SEQ ID NO 63; 5′-[…]-3′ and SEQ ID NO 64; 5′-[…]-3′) provided by the company offering sequencing service (GATC Biotech AG, Germany) on the 454 sequencing system (454 Life Sciences). An average of 18,000 sequences was obtained from pools of 2 amplicons (500 ng each). After sequencing, different samples were identified based on barcode sequences introduced in the first of the above adaptators.
# (§3) Sequences were then analyzed for the presence of insertions or deletions events (InDel) in the cleavage site of each NANOG target.
# [2] = biological target: T2, SCOH-NANOG2 pCLS4416 (single-chain …)
# Experimental: as §1, §2, §3
# [3] = biological target: T3, SCOH-NANOG2 pCLS4415 (single-chain …)
# Experimental: as §1, §2, §3
binder,measurement,setting,value
NANOG2 (NANOG2.1) target (dsDNA) DNA 1: CCAACATCCTGAACCTCAGCTACA DNA 2: TGTAGCTGAGGTTCAGGATGTTGG,activity,[1],0.317 % InDel
same,activity,[2],0.222 % InDel
same,activity,[3],0.276 % InDel
